Columns and labels:
Experiment in all cases: SPR (Biacore T200); Tie2-Fc captured on anti-human IgG (Fc), Fab at 50 nM; mean of 3
Human Tie2 (1-452)r3-Fc = biological target: T1, Human Tie2 (1-452)r3-Fc (human, UniProt Q02763 23-452)
T1 construct: range 1-452
Method: (§1) SPR analysis was carried out in order to evaluate the binding activity of the human Tie2 (1-452)-Fc chimera protein and 23 mutant proteins thereof to the fully human 2-16A2-Fab.
(§2) For SPR analysis, Biacore T200 (GE Healthcare) was used. An anti-human IgG (Fc) antibody (Human Antibody Capture Kit, GE Healthcare) was fixed onto a CM5 sensor chip. The human Tie2 (1-452)-Fc chimeric protein and 23 mutant proteins thereof, diluted with HBS-EP (GE Healthcare) at 5 μg/mL, were each allowed for immobilization, and the capture-amount was measured. Thereafter, the fully human 2-16A2-Fab diluted with HBS-EP to 50 nM, the binding amount thereof to the human Tie2 (1-452)-Fc chimeric protein and 23 mutant proteins thereof were measured. Further, by dividing the binding amount with the capture-amount, the binding amount of the antibody in the unit immobilized antigen (hereinafter referred to as a binding ratio) was calculated. The arithmetic mean of three experiments and the relative value of the binding ratio of each mutant proteins when the binding ratio of the human Tie2 (1-452)-Fc chimeric protein was taken as 100% are shown in Table 7.

Human Tie2 (1-452)r4-Fc = biological target: T2, Human Tie2 (1-452)r4-Fc (human, UniProt Q02763 23-452)
T2 construct: range 1-452
Method: as §1, §2

Human Tie2 (1-452)r5-Fc = biological target: T3, Human Tie2 (1-452)r5-Fc (human, UniProt Q02763 23-452)
T3 construct: range 1-452
Method: as §1, §2

Human Tie2 (1-452)r6-Fc = biological target: T4, Human Tie2 (1-452)r6-Fc (human, UniProt Q02763 23-452)
T4 construct: range 1-452
Method: as §1, §2

Human Tie2 (1-452)r7-Fc = biological target: T5, Human Tie2 (1-452)r7-Fc (human, UniProt Q02763 23-452)
T5 construct: range 1-452
Method: as §1, §2

Human Tie2 (1-452)g1-Fc = biological target: T6, Human Tie2 (1-452)g1-Fc (human, UniProt Q02763 23-452)
T6 construct: range 1-452
Method: as §1, §2

Human Tie2 (1-452)g3-Fc = biological target: T7, Human Tie2 (1-452)g3-Fc (human, UniProt Q02763 23-452)
T7 construct: range 1-452
Method: as §1, §2

Human Tie2 (1-452)g4-Fc = biological target: T8, Human Tie2 (1-452)g4-Fc (human, UniProt Q02763 23-452)
T8 construct: range 1-452
Method: as §1, §2

Human Tie2 (1-452)g5-Fc = biological target: T9, Human Tie2 (1-452)g5-Fc (human, UniProt Q02763 23-452)
T9 construct: range 1-452
Method: as §1, §2

Human Tie2 (1-452)m1-Fc = biological target: T10, Human Tie2 (1-452)m1-Fc (human, UniProt Q02763 23-452)
T10 construct: range 1-452
Method: as §1, §2

Human Tie2 (1-452)m3-Fc = biological target: T11, Human Tie2 (1-452)m3-Fc (human, UniProt Q02763 23-452)
T11 construct: range 1-452
Method: as §1, §2

Human Tie2 (1-452)y1-Fc = biological target: T12, Human Tie2 (1-452)y1-Fc (human, UniProt Q02763 23-452)
T12 construct: range 1-452
Method: as §1, §2

Human Tie2 (1-452)A1-Fc = biological target: T13, Human Tie2 (1-452)A1-Fc (human, UniProt Q02763 23-452)
T13 construct: range 1-452
Method: as §1, §2

Human Tie2 (1-452)A2-Fc = biological target: T14, Human Tie2 (1-452)A2-Fc (human, UniProt Q02763 23-452)
T14 construct: range 1-452
Method: as §1, §2

Human Tie2 (1-452)A4-Fc = biological target: T15, Human Tie2 (1-452)A4-Fc (human, UniProt Q02763 23-452)
T15 construct: range 1-452
Method: as §1, §2

Human Tie2 (1-452)A5-Fc = biological target: T16, Human Tie2 (1-452)A5-Fc (human, UniProt Q02763 23-452)
T16 construct: range 1-452
Method: as §1, §2

[1] = biological target: T17, human Tie2 (1-452)-Fc chimeric protein (human, UniProt Q02763 23-452)
T17 construct: range 1-452; The stated range 1-452 begins at residue 1 of the precursor
Method: as §1, §2

T14 sequence (Q02763 other isoform, or with tags, fused parts or gaps limits assumed, form in doubt): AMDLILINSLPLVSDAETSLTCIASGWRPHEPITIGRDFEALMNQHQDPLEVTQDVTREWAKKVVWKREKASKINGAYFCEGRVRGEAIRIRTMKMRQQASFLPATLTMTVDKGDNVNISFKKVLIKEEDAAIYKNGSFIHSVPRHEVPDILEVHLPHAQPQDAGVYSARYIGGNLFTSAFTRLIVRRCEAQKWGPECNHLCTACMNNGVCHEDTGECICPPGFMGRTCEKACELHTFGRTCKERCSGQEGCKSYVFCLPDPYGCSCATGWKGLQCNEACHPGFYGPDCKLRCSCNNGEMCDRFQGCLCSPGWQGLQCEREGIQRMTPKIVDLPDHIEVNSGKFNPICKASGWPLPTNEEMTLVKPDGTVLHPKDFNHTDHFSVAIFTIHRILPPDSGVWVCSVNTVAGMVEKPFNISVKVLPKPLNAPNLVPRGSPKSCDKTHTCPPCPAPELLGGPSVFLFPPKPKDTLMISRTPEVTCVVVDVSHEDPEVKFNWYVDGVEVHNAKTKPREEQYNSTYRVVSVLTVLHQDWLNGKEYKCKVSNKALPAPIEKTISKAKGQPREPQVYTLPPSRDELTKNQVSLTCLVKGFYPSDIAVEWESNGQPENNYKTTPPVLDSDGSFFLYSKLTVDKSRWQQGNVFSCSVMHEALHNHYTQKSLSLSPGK
T3 sequence (Q02763 other isoform, or with tags, fused parts or gaps limits assumed, form in doubt): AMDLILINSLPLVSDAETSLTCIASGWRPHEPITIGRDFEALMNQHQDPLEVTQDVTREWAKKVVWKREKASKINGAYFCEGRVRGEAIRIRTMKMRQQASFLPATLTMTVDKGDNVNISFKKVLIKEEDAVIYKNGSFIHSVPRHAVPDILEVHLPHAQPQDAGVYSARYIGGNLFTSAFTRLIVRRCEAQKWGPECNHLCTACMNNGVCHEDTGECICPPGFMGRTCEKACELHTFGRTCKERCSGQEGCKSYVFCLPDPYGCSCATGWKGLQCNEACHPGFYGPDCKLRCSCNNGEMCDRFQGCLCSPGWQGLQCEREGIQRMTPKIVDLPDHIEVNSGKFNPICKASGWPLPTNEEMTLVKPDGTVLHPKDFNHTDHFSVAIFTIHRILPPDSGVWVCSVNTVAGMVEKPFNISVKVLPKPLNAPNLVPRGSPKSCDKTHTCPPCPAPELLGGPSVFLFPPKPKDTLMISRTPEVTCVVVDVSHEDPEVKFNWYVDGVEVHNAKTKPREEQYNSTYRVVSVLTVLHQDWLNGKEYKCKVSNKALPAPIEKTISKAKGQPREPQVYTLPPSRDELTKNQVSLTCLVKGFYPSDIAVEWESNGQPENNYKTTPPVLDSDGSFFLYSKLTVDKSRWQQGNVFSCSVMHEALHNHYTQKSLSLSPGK
T11 sequence (Q02763 other isoform, or with tags, fused parts or gaps limits assumed, form in doubt): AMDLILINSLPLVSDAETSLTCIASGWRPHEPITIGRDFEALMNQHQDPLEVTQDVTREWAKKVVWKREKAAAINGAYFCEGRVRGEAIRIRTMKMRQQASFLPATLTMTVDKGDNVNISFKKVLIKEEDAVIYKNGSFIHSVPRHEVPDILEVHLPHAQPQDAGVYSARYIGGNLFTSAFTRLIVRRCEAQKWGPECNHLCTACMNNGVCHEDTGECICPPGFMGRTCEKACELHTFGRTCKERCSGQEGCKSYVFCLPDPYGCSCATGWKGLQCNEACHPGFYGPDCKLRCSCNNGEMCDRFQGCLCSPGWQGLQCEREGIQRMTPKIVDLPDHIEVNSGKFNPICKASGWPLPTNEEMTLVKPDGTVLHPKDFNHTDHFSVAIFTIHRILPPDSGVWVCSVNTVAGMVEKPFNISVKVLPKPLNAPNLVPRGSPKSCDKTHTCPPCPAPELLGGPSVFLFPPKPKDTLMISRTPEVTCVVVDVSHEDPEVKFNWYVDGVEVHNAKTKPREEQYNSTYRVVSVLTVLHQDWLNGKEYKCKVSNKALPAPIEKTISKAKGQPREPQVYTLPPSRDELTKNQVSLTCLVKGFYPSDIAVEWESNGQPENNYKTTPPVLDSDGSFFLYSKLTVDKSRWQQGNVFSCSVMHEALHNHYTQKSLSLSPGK
T9 sequence (Q02763 other isoform, or with tags, fused parts or gaps limits assumed, form in doubt): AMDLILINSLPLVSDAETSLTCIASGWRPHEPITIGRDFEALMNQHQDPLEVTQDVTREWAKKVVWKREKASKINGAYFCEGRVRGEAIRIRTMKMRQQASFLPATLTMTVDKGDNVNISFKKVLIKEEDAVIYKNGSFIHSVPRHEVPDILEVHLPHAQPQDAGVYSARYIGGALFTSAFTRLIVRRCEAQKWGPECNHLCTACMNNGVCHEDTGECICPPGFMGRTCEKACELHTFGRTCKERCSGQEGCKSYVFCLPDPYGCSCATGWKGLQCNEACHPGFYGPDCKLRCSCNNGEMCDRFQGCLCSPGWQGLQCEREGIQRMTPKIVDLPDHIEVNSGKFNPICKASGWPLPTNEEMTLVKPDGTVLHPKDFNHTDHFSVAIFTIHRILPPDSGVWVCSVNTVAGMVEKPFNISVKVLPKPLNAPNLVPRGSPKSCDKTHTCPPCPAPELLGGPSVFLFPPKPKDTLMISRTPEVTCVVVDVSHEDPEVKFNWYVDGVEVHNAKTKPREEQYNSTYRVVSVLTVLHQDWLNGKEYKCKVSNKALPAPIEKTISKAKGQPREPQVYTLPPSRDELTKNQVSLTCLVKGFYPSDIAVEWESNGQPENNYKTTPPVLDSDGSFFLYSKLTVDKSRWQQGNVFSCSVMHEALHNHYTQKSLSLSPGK
T5 sequence (Q02763 other isoform, or with tags, fused parts or gaps limits assumed, form in doubt): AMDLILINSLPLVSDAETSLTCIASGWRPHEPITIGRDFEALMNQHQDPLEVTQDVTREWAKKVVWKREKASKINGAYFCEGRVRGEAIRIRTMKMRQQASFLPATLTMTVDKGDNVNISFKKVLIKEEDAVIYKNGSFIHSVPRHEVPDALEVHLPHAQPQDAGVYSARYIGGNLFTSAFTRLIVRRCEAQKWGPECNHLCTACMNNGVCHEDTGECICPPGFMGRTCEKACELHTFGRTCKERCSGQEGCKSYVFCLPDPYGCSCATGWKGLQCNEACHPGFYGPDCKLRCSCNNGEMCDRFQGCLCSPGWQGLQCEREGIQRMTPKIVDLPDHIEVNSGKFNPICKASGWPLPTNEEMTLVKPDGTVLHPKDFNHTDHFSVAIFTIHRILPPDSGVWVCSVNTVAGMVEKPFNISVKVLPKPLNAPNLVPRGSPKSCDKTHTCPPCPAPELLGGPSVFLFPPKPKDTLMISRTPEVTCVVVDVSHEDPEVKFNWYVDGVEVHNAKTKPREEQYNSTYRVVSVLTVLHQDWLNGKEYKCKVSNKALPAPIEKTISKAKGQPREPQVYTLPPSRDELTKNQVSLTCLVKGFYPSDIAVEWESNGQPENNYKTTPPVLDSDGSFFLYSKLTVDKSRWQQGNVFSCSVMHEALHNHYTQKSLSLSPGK
T2 sequence (Q02763 other isoform, or with tags, fused parts or gaps limits assumed, form in doubt): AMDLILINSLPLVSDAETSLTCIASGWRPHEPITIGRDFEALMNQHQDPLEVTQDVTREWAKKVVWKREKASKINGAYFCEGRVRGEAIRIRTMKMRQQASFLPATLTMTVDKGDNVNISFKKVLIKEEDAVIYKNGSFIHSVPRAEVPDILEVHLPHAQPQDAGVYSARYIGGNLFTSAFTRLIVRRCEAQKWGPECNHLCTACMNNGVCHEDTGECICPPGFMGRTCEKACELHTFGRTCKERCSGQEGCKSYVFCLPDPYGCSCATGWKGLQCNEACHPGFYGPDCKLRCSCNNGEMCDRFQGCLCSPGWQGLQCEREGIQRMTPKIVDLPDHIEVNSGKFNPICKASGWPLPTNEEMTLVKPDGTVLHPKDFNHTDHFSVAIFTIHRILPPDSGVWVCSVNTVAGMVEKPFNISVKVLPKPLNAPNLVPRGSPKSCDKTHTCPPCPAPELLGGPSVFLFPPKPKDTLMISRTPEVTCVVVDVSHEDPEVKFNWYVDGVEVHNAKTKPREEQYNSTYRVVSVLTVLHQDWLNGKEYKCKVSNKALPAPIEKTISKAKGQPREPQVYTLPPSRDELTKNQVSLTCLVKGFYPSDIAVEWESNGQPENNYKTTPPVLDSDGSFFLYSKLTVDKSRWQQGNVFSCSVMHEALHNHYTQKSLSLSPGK
T10 sequence (Q02763 other isoform, or with tags, fused parts or gaps limits assumed, form in doubt): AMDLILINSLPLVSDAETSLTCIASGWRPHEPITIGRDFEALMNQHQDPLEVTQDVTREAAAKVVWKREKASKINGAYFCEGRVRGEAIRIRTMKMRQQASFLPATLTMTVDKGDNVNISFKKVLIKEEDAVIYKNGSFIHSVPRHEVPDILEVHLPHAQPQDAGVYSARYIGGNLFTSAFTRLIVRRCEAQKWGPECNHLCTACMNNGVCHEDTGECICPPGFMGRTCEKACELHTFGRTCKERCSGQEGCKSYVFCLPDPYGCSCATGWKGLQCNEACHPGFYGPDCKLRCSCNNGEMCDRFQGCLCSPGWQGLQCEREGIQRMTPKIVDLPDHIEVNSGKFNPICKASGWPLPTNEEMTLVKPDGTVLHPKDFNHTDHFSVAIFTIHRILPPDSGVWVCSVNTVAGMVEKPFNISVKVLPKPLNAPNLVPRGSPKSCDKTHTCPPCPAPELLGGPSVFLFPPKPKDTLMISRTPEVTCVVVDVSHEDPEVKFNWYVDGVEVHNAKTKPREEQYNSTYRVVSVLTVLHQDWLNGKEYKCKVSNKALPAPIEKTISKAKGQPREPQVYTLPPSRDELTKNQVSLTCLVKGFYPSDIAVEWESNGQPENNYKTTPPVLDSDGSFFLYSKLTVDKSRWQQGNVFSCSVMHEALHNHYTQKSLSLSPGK

B1: fully human 2-16A2-Fab (Fab, V domains shown)
VH: EVQLVESGGGLVQPGGSLRLSCAASGFTFDDYAMHWVRQAPGKGLEWVAGISWNSGSIVYADSVKGRFTISRDNSKNTLYLQMNSLRAEDTAVYYCAKDIREQLVEDAFDIWGQGTLVTVSS
VL: DIQMTQSPSSLSASVGDRVTITCRSSQSLLHSHRYNYLDWYQQKPGKAPKLLIYLGSNRASGVPSRFSGSGSGTDFTLTISSVQPEDFATYYCMQTLQTPLTFGQGTKVEIKR
notes: also called Fab of the fully human 2-16A2
Question: Which Binding ratio (Human Tie2 (1-452)r3-Fc) does the source give for B1 here?
Answer: 0.34

Question: What about the “Relative value (%) of binding ratio (human Tie2 (1-452)-Fc chimeric protein = 100%)” value (“Relative value (%) of binding ratio” below) (Human Tie2 (1-452)r3-Fc) of the same binder?
Answer: 119%

Question: And the Binding ratio (Human Tie2 (1-452)r4-Fc)?
Answer: 0.33

Question: And the “Relative value (%) of binding ratio” value (Human Tie2 (1-452)r4-Fc)?
Answer: 113%

Question: And the Binding ratio (Human Tie2 (1-452)r5-Fc)?
Answer: 0.29

Question: What about the “Relative value (%) of binding ratio” value (Human Tie2 (1-452)r5-Fc) of the same binder?
Answer: 99%

Question: And the Binding ratio (Human Tie2 (1-452)r6-Fc)?
Answer: 0.29

Question: What about the “Relative value (%) of binding ratio” value (Human Tie2 (1-452)r6-Fc) of the same binder?
Answer: 100%

Question: And the Binding ratio (Human Tie2 (1-452)r7-Fc)?
Answer: 0.3

Question: What about the “Relative value (%) of binding ratio” value (Human Tie2 (1-452)r7-Fc) of the same binder?
Answer: 106%

Question: What about the Binding ratio (Human Tie2 (1-452)g1-Fc) of the same binder?
Answer: 0

Question: What about the “Relative value (%) of binding ratio” value (Human Tie2 (1-452)g1-Fc) of the same binder?
Answer: 0%

Question: And the Binding ratio (Human Tie2 (1-452)g3-Fc)?
Answer: 0.06

Question: What about the “Relative value (%) of binding ratio” value (Human Tie2 (1-452)g3-Fc) of the same binder?
Answer: 23%

Question: What about the Binding ratio (Human Tie2 (1-452)g4-Fc) of the same binder?
Answer: 0.02

Question: What about the “Relative value (%) of binding ratio” value (Human Tie2 (1-452)g4-Fc) of the same binder?
Answer: 7%

Question: And the Binding ratio (Human Tie2 (1-452)g5-Fc)?
Answer: 0.03

Question: What about the “Relative value (%) of binding ratio” value (Human Tie2 (1-452)g5-Fc) of the same binder?
Answer: 9%

Question: What about the Binding ratio (Human Tie2 (1-452)m1-Fc) of the same binder?
Answer: 0.31

Question: And the “Relative value (%) of binding ratio” value (Human Tie2 (1-452)m1-Fc)?
Answer: 107%

Question: What about the Binding ratio (Human Tie2 (1-452)m3-Fc) of the same binder?
Answer: 0.04

Question: What about the “Relative value (%) of binding ratio” value (Human Tie2 (1-452)m3-Fc) of the same binder?
Answer: 12%

Question: And the Binding ratio (Human Tie2 (1-452)y1-Fc)?
Answer: 0.25

Question: What about the “Relative value (%) of binding ratio” value (Human Tie2 (1-452)y1-Fc) of the same binder?
Answer: 87%

Question: What about the Binding ratio (Human Tie2 (1-452)A1-Fc) of the same binder?
Answer: 0.1

Question: What about the “Relative value (%) of binding ratio” value (Human Tie2 (1-452)A1-Fc) of the same binder?
Answer: 34%

Question: And the Binding ratio (Human Tie2 (1-452)A2-Fc)?
Answer: 0.08

Question: And the “Relative value (%) of binding ratio” value (Human Tie2 (1-452)A2-Fc)?
Answer: 29%

Question: What about the Binding ratio (Human Tie2 (1-452)A4-Fc) of the same binder?
Answer: 0.13

Question: What about the “Relative value (%) of binding ratio” value (Human Tie2 (1-452)A4-Fc) of the same binder?
Answer: 44%

Question: And the Binding ratio (Human Tie2 (1-452)A5-Fc)?
Answer: 0.39

Question: And the “Relative value (%) of binding ratio” value (Human Tie2 (1-452)A5-Fc)?
Answer: 135%

Question: What about the Binding ratio [1] of the same binder?
Answer: 0.29

Question: And the “Relative value (%) of binding ratio” value [1]?
Answer: 100%
